Consider one protein from PMC3006384, “Phosphorylation of Mouse Immunity-Related GTPase (IRG) Resistance Proteins Is an Evasion Strategy for Virulent Toxoplasma gondii” (PLoS Biology, 2010).

The data set deals with the molecule itself. Description: light scattering; GTP-dependent oligomerisation of recombinant Irga6 monitored by conventional light scattering, as described earlier (ref. 16).

B1: recombinant wt Irga6 (bacterially expressed, from pGEX-4T-2-Irga6) (natural protein)
chain: MGQLFSSPKSDENNDLPSSFTGYFKKFNTGRKIISQEILNLIELRMRKGNIQLTNSAISDALKEIDSSVLNVAVTGETGSGKSSFINTLRGIGNEEEGAAKTGVVEVTMERHPYKHPNIPNVVFWDLPGIGSTNFPPNTYLEKMKFYEYDFFIIISATRFKKNDIDIAKAISMMKKEFYFVRTKVDSDITNEADGKPQTFDKEKVLQDIRLNCVNTFRENGIAEPPIFLLSNKNVCHYDFPVLMDKLISDLPIYKRHNFMVSLPNITDSVIEKKRQFLKQRIWLEGFAADLVNIIPSLTFLLDSDLETLKKSMKFYRTVFGVDETSLQRLARDWEIEVDQVEAMIKSPAVFKPTDEETIQERLSRYIQEFCLANGYLLPKNSFLKEIFYLKYYFLDMVTEDAKTLLKEICLRN
notes: Irga6, mouse immunity-related GTPase (IRG) protein; Expressed as N-terminal GST fusion; also called recombinant Irga6
Take B1: the binding result is given as “binds”.
